The chains are these.
B1: Tub4 (yeast gamma-tubulin), wild type, untagged [S. cerevisiae] / Spc110 [S. cerevisiae (endogenous in yeast cells)] (parent)
chain 1: MGGEIITLQAGQCGNHVGKFLWSQLAKEHAIGTDGLSQLPDSSTERDDDTKPFFRENSRNKFTPRAIMMDSEPSVIADVENTFRGFFDPRNTWVASDGASAGNSWANGYDIGTRNQDDILNKIDKEIDSTDNFEGFQLLHSVAGGTGSGLGSNLLEALCDRYPKKILTTYSVFPARSSEVVVQSYNTILALRRLIEDSDATVVFDNASLLNISGKVFRNPNIDLQHTNQLISTIISSVTNSIRFPSYMYSSMSSIYSTLIPSPELHFLSPSFTPFTSDYIHDDIAHKGHSSYDVMLDLLDPSNSLVSTAMNNPTYFNVYNTIIGNVEPRQISRAMTKLQQRIKFPSWSSSAMHVNIGRRSPYLPLQPNENEVSGMMLSNMSTVVNVFENACNTFDKVFAKGAFLNNYNVGDLFQSMQNVQDEFAESREVVQSLMEDYVAAEQDSYLDDVLVDDENMVGELEEDLDADGDHKLV
chain 2: MDEASHLPNGSLKNMEFTPVGFIKSKRNTTQTQVVSPTKVPNANNGDENEGPVKKRQRRSIDDTIDSTRLFSEASQFDDSFPEIKANIPPSPRSGNVDKSRKRNLIDDLKKDVPMSQPLKEQEVREHQMKKERFDRALESKLLGKRHITYANSDISNKELYINEIKSLKHEIKELRKEKNDTLNNYDTLEEETDDLKNRLQALEKELDAKNKIVNSRKVDDHSGCIEEREQMERKLAELERKLKTVKDQVLELENNSDVQSLKLRSKEDELKNLMNELNELKSNAEEKDTQLEFKKNELRKRTNELNELKIKSDEMDLQLKQKQNESKRLKDELNELETKFSENGSQSSAKENELKMLKNKIAELEEEISTKNSQLIAKEGKLASLMAQLTQLESKLNQRDSQLGSREEELKKTNDKLQKDIRIAREETVSKDERIIDLQKKVKQLENDLFVIKKTHSESKTITDNELESKDKLIKILENDLKVAQEKYSKMEKELKEREFNYKISESKLEDEKTTLNEKISNLAAENSQLKNKIEDNSTATHHMKENYEKQLESLRKDIEEYKESAKDSEDKIEELKIRIAENSAKVSEKRSKDIKQKDEQISDLTQNLKLQEDEISSLKSIIDRYKKDFNQLKSEQSNIQHDLNLQILNLENKLIESEDELKSLRDSQKIEIENWKRKYNNLSLENDRLLTEKESASDKEREISILNRKLDEMDKEKWNLQESKEKYKRELQKVITANDRLRREKEELNENSNNIRIMEDKMTRIKKNYLSEITSLQEENRRLEERLILNERRKDNDSTMQLNDIISYYKLKYHSEVRHNNDLKVINDYLNKVLALGTRRLRLDTRKGEHSLNISLPDDDELDRDYYNSHVYTRYHDYEYPLRFNLNRRGPYFERRLSFKTVALLVLACVRMKRIAFYRRSDDNRLRILRDRIESSSGRISW

Variants of B1 are the subject of the first assay. As to the kind of experiment: co-immunoprecipitation (anti-HA IP of Spc97-3HA), quantified immunoblot. The settings on record: with Spc110 [S. cerevisiae (endogenous in yeast cells)]; Indirect: Spc110 recovered in Spc97-3HA IP from tub4-S74E cells; TUB4-AID SPC97-3HA cells, IAA for 2 h at 30°C; normalized to precipitated Spc97-3HA; parent: 1; read off a plot. In general terms: Immunoblotting shows a protein as a band on a membrane.
For the variant chain 1 S74E, the ratio to parent was 1.3 RI.

Staying with this assay, now noted: with Spc110 [S. cerevisiae (endogenous in yeast cells)], Indirect: Spc110 recovered in Spc97-3HA IP from tub4-S360D cells, TUB4-AID SPC97-3HA cells, IAA for 2 h at 30°C, normalized to precipitated Spc97-3HA, read off a plot.
Consider chain 1 S360D, for which the ratio to parent was determined as 0.28 RI.

Still in this assay, the particulars now being: with Spc110 [S. cerevisiae (endogenous in yeast cells)], Indirect: Spc110 recovered in Spc97-3HA IP from tub4-S100E cells, TUB4-AID SPC97-3HA cells, IAA for 2 h at 30°C, normalized to precipitated Spc97-3HA, read off a plot.
As to chain 1 S100E, the ratio to parent was 0.76 RI.
